The test concerns the target immune complexes of Dylight 650-labeled bovine serum albumin, polyclonal rabbit anti-BSA and human serum complement (bovine) (UniProt P02769). The experiment in a line: cell-based or functional assay.
UniProt P02769, sequence (P02769 25-607, one chain of several): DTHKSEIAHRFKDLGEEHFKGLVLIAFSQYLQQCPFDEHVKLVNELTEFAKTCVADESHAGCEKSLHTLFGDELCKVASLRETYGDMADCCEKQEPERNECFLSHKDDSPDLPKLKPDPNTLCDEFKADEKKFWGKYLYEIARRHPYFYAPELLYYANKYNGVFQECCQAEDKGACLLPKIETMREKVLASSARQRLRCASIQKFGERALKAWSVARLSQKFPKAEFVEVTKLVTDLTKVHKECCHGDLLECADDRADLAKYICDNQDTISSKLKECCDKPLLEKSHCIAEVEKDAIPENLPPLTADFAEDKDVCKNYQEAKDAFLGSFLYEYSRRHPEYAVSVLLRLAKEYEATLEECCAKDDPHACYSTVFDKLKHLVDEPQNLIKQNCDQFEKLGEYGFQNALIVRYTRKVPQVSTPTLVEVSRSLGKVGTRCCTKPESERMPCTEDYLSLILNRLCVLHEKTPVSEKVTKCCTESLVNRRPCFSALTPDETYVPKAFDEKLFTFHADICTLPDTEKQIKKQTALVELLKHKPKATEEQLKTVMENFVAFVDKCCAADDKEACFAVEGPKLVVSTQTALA

The substance “complement receptor 1 (CR1) over-expressed on the surface of cultured erythroid cells (from UniProt P17927 42-2039)” came in with an uptake of labeled immune complexes by PMA-activated U937 macrophages in co-culture (flow cytometry fluorescence) of 2 fold.

Values taken from patent US20190316091A1.
